Test results taken from a protein production outcome set (Wang et al. 2014).

Assay: label from the status in PepcDB records

Sequence	protein production
MLEIVAAIFIVLLGSGICSCAEAALFSVPLVKVRQLSQSNNPSAIALQAIRHRMNRPIGTIVVLNNIFNIVGSITIGALATKHLQDAWMGVFSGILTLLIIVFGEIIPKTLGERYATNIALLIAIPVRFLTLIFTPLVWLIEQITNPFTHGKRVPSTNEAEIKFLATLGYKEGVIEGDEEQMIQRVFQLNDLMAVDLMTPRVIITYLLGELTLAECQQDIIQSQHTRILIVDEYIDEVLGIALKQDLLTALIQGEGYKTIAELARPAQFVPEGMRADKLLKQFQEKREHLMVVIDEYGGVAGVITLEDVVEVLTGEIVDETDKNIDLQEIARKKRQALLKQRGVAP	failed
MTFTDALGQAHAPVDTTPRIASLVPSITDLLFSLDLGGQLVARTGFCIHPREAVRAIPKVGGTKTVKLDRLRELAPTHVIVNIDENTRETADKLREFVPHVIVTHPCAPEDNLTLYGLLGGIFRREAQAQRLSEALARELAALRGQVFPLRRVLYAIWQDPWMTVARDTYISRMLALIGCQTWPEDPAPVQCGTGRHGDCARPNRPDTRYPTFRWSDEVVRNIDCVLLSTEPYSFTEAHADALEKQIGKPVYLVDGEMVSWYGSRAIEGVRYLGRLAQALT	failed
MTPQFRALLVHLFTATGAVFAMLAMLAAVDAKWDLMFLWLVVAFFVDGLDGPMARRYHVKTYAPEFDGVLLDLIIDYLTYVFIPAFALFKSGLMDGWTGWLAIIIITFASAMYFADTRMKTKDNSFSGFPGCWNMVVLVIFALEPNFWVSLVLVTVLAVSMFLPLKFVHPVRTERWRAITLPMALAWTFFAGWAAWVGFHPESWAHWGLVVTSLYLIFAGIAQMVIPEKDTASPF	failed
MVKALFSLLFVAFIWGSTFPIQKIVLVGVSPTFYIAVRFFIAALVSYFLFGKGNVKYGSILGTLLGIAYTTQTWGLTITTSTKSGFITSMYIVFVPVFAYLLEREIPTIFQIVSFFAASLGLYMISGGIKDFNFGDFLTLICAVSFALHVVLITMFSKRVKEVDLLFPQFLVVGILNLILNFFWKNWNFTLPALGSAVFTALAATILAIYLQAKYQKALGNNVSAIVFLGEPVFAAVVSYFMLGETMAGKQLLGAALLLISMLFSSLERVKIVRDANQKGRDECEDSL	failed
MSRTLVLFDIDGTLLKVESMNRRVLADALIEVYGTEGSTGSHDFSGKMDGAIIYEVLSNVGLERAEIADKFDKAKETYIALFRERARREDITLLEGVRELLDALSSRSDVLLGLLTGNFEASGRHKLKLPGIDHYFPFGAFADDALDRNELPHIALERARRMTGANYSPSQIVIIGDTEHDIRCARELDARSIAVATGNFTMEELARHKPGTLFKNFAETDEVLASILTPKHS	not failed
MVNQQEEINLSVALVTRNRPDSLERCLKSLRDQKVQPFEVVVSDDSDDLYKSSTKEIAQKWGCRYIDGPKRGLYANRNYVALACYGTHIRTMDDDHEFPEQHIEVCLNAIQSDPSSIWIIGEYSPTSSIENAPHPCPGQLHPRGFSFYPKDTQNCWAIADGASIYPKKIFASGLRFVEYYKFGASYLEWGSRLYYLSYRIRHLDSTYIIHHFNPKARSFSDQEMDQSSRFFAMLCHSFLYQSTFKNKCLFSYEILKQFILDPKLTIKCIINSWSNFELFSRSFCALEHHHHHH	failed
MRGPAEQPPVTAISADATDADAAWRIMEQTRPDVVIMNAGAEPPMERIDRIGWEAFTTNWNVDVKAALHWVQAALTVPMAPGGLVVLISSGAAVQGSPLSGGYAGAKRAQWFIAKYADGLSAELGLGLRFRVLVPRQMFVGTGVGDTGIGAYAAKAGRTFAEQAATWPNMTPRAFGDTVAELIGKSGLAEAMVYAVRGDTGVTVIE	failed
MCPYITRRNDVMNDTFDYIFGYALSTALARYWVNPDGSQGGIVSIDAKIDASVMIGKDAVVFPDANIAERACIAEKVCIGNAVRIGKHAMIDHGASIGDRSNIGERSRIYQDSFIGENAVIAARACIGEKVYIGNFVSLAKDSIIDDGVNIGERSSIGERTRIRQGSFIRKGCVIRQRSVIAKRAYIDEGVYIGNVVRIGEESMIHRRSRIGSGARIGGSVCIGVYCRIDGSVRIGQHADIGEWVNIDGHARIGNFARIGEWSRIGGRANIAAHVVLEKQSIIHSETCIQDASKTSVDMPKDAGI	failed
MKIMKTFALSSIASAAMLFCSSALAADGTITVDGKVTDRTCTINGGTPNFSVTMPTVSFSSLNGEGKTSARTPFTIELTNCTAGSTVATYFEPGPAVDINTSRLINQAPTASAATNVQVQLLGSNGSVIPIKAVGTTGAQDNSQWVAVNASGAASMHYYTEYYATGVSTAGSVVTNIQYTIIYQ	failed
CLVDPHTVLPSPISGPTETIRSLRRCAAAGGYGQVALLPRGQSWRDQPERLIGLQNADPSSVHLPLWGGFSLNGKGDELAPHGDLLEHGAIGLADDDAVVPLPLLERGLLLGEMGSCPVLIAPRDPNLQGDGLAREGVETLRAGWAPDPLISELLPLQQLLALQQRHPDRQLRLMNISTAAAVDLLGQADPQLKASVCWWHLLVDGSSLSSTDPGCRVRPSLGGAADRLRLRSALQSGLIQAVAVHAVPLDEEDMLLPADQRPPGLSGHHLVMPALWSALVDQGDLSIESLWELLSFGPSAFLDQP	failed
MIKPSNYQPPYTITPAIVNLVAEIGEIIGRYTVLAEQNLTPRLRRENRIRTIQASLAIENNTLTLEQVTAVIDGKRVLGHPREIQEVRNAFATYEAMEDWDASVEGDLLAAHELLMRGLVDETGRYRSGGVGIFRGEQLVHMAPPADRVPKLMADLLDWLENTNEHPLVASCIFHYEFEFIHPFADGNGRMGRLWQTLILRNWKPLLAYLPVETVIRDRQEDYYRVLAVADSQADATPFVEFMLGALRDAVREAVSTDHVGDQVTDQVAALIRAIGGGELSSNDLMQALGLSHRPTFRNNYLNPAMEDEWIERTQPDSPRSPTQRYRLTGKGQRWLQHHADE	not failed
MIHADPESAMPAAYAATPFAQRLGLTLPVVQAPMAGVSTPALAAAVSNAGGLGSLGLGAMNADAARQAIALTREQTTRPFNVNLFCHAPATADAAREARWLQYLAPRFAEFDAQPPATLREVYTSFLADDDMFDMLLAERPEVVSLHFGLPPASRIAALRQAGIYLMATATDMREAARIAAAGVDAIVAQGIEAGGHRGMFDPAARDEQLGTLALTRLLARRFDAPVIAAGGIMDGAGVAAVLALGAQAAQLGTAFISCPESSADMPHRHALLDQAEVATTLTRAISGRPARSIANRYTELGAAADCPPTPDYPIAYDAGKALHAAARARGDASYAAQWAGQAAALSRGVPAATLMRQLQAELNDCIGRLAR	failed
YALTEGEDYLVLDKPIPQEQPGKIEVLEFFGYFCVHCHHFDPLLLKLGKALPSDTYLRTEHVVWRPEMLGLARMAAAVKLSGLKYQANSAVFKAVYEQKIRLENRAVAGKWALSQKGFDGKKLMRAYDSPEAAAVALKMQKLTEQYGIDSTPTVIVGGKYRVIFNNGFDGGVHTIKELVAK	failed
MKDYQKILVVVDPTTENQVALARAVTLASKSNAHVTVFLSIFDFSYEMTSILSSQEREAMRQGVIDQRVAWIQDLLAPYNHLGLNIDTQVIWHNRPFESIINHAIAGQYDLIVKGTHAHDKLKAVIFTPTDWHLMRKAPVPVLMVKDHDWPETGKILCAVNVATEDTDHQMLNGKIIEHAKDLAGKFAAEVHLVNGFPGTPVNLAIELPDFDAQTYNDTIRLQHEQRVQYLADAYGIDKQNCHVKEGLPEDVIPELAEQLDAELVILGTVGRTGFSAALIGNTAEHVIDSINCDLLAIKPDGYKSPLEEA	not failed
MKSACSIITASIVLYKSKPDIIRDVITSFFSDTVTKKKLILIDNSPTDSLRVLQEERPEDIQYFFNNRNIGFGSAHNIGIREAARFNPSYHLILNPDVQFGPEVVPTLASYMDENPDIGLLMPQVYYPNGELQHLCKLFPRPWDVMLRRFVPYRSYRERNNERFELRNWSYDTIQDIPSLSGCFMFARMDILREVGGFDERFFMYAEDLDLCRRIGQVSRTVFFPKVSIMHTYAKGSYHDAKLLRHHIVSLIRYFNKWGWLFDAERRRVNRACLAVLRNQTTVKKD	failed
MTFRKPPPTMKPTRSLSASLFSDPHPAAYLAAFAAVMATAVARLYLPEAFTAPSSFLLFVPAVLISAALGGVGPGVFGTTFAWAAVWWVTRDIPFDLVSGLSAAIFLSVGFGMAVGGGWFHAARRRAAAVNDHLRSILDTVPDAVVVIDRAGIMTSFSPAAQRMFGWSEAEAIGKNVSLLMPEPYQSAHDGYLDRYARTGEKRIIGAGRVVVGRRKDGSTFPMELAVGETRGPTPSFTGFIRDLTERQETETRLQELQNELVHVSRLTAMGEMASTLAHELNQPLSAIANLLTGSRRLMDRGREADQAKVRDAIDRAAAQALRAGEVIHRMRDFARRGASEREVESLSKLIEEASALALIGEKERQVDVRLKLDPKADDVFADRVQIQQVLLNLIRNGIDAMQAQEPRKRALLIRTGLTEEGWSEVSVADTGPGIAPEVLERLFQPFMTTKPQGMGVGLSISRSIIEAHGGRIWAEANPGGGALFRFTLPPAESLAGEKETIDD	failed
MTSSLQPDASRDAQREQVIAQLQQVIQRVPEQSEFTNTRRYQLLGPLFTLISLGMLAWGIQQGKTGMLLCGLFLSALFALVTWQHRHAGQHAFMRLTRRQLFVDSLSAPVNLTDVVDVHVKDEGLLTLQQLTLRPGSPLPTHRPVRQVFGNQAMALKSPEPHIRIHSAGLMSGGRKLAIDDIAALLDAYCQAANAQQQLDELQGRG	failed
MRLFIMEFKHLMFSKTFLFYCLLIIIFTVLNCQQVLKHPINSDVYQPQNMTMYSTDKNLIMSNEIKELKNEVHQNNFKTYQFGFLKQKKLNDQQISKIKKLISKMEKTNNFHQFKNYSNSVSHVVGWGSQYSKNNISLFGIKNMSKSKYVKEKNIIKNKEYYYGAYSRYFSDIMGVVLGILPFFLGAQMILQDKKSNAIKTIHSKSISSYQLISTRVFTILVLAYLPVLLVSIYFVTCLSMIHQISMFSLFIFYKILILWTLPTLIFTIAMGFFVTIILNSYLGVMIQIVIWFINLNIGSRAIEGCYGSLLIPRHNTLFNAVFFYNHFNQILANRFTYFGLGLLLILLSTYIFDLKRREVGFNAKIFTNRYQN	failed
ASHLQFVQPKKAPPLSVSLIQGNIPQDLKWLTEYQFKTLMIYANLTRSEWGRDLIVWPESSIPMFQTDIQPFLDAMNQQAKNRGSAWVTGIPYWDVTGSREVGTPLYYNSIMASGDNSQGLYKKQRLVPFGEYIPLSGLLSWVLPALQNDPSMSGFSQGSNNQKPLMIKGHRLAAAICYEVAYPNLTRRNAENSDFLVTVSNDAWFTGTAGPMQHLQMVQMRAKENGRWFIRATNTGVTAFIDSQGHIVKQAPIDKEAVLRGDLPAMQGETLYTRLSDWPILLFSVLLLILGWIYRPRQVDVSFKSRR	failed
MQEKPAATGKADESAASKELLKLLRKAVAAVSGEDGWASLSNLGSHISKIRPSFDSRNYGYSKLSTLVKNLDIFETRMVPSADKLHTDVFLRLKDGKLEHHHHHH	failed
MRVASDAGDAETLLAAVPANQRVAIVDARFVGHLHALRLGLTDPRFEAAALAGAVSAQPGARQALTRALARESSAATGGATVVMDNLAERITAALDADGVQVHRPDLGTLVAAVPADPQARNEVRQAVTAVDDEAVRLRTAVKSRDGFFTTHFISPYSRYLARWCARRGLTPNQVTTASLLTALVAAGCAATGTRAGFVAAGLLLLFSFVLDCADGQLARYSLQYSTLGAWLDATFDRAKEYAYYAGLALGAARGGDDVWALALGAMVLQSCRHIVDFSFNEANHDATANTSPTAALSDKLDSVGWTVWLRRMIVLPIGERWAMIAVLTALTTPRITFYALLIGCAFAATYTTAGRVLRSLTRKARRTDRAAQALADLTDSGPLAEFLTRFARRLRLRGPACVALVTGALVVLAAALAPYGSWWPVLAAVTYVLLSPVALLKPLKGALDWLVPPFYRAAEYGTVLVLAAKADVNGALPAAFGLVAAVAYHHYDTVYRIRGNAGAPPHWLVRAIGGHEGRTLLVTVLAALLVPTDFKVALTALAVAVALVVLVESIRFWVSSQAPAVHDEGEPA	failed
